Key:
[1] = target: T1, human HER3-Fc protein (R&D system) (human, UniProt P21860 20-643); test: ELISA, HER3-Fc coated at 250 ng/ml
T1 construct: Bought (R&D system); called soluble HER3-Fc; also called soluble HER3-Fc; HER3-Fc antigen; not shown: Fc part

[2] = target: T2, EGFR on EGFR-transfected NIH 3T3 cells (UniProt P00533 25-1210, limits assumed); test: flow cytometry on EGFR-transfected NIH 3T3 cells
T2 construct: whole, on cells; also called ErbB1; HER1

[3] = target: T3, HER2 on HER2- or HER2/HER3-transfected NIH 3T3 cells (UniProt P04626 23-1255, limits assumed); test: flow cytometry on HER2-transfected NIH 3T3 cells
T3 construct: whole, on cells

[4] = target: T4, HER3 receptor on cells (HER3- and HER2/HER3-transfected NIH 3T3 cells, SKBR3 cells, BxPC3 cells) (human, UniProt P21860 20-1342); test: flow cytometry on HER3-transfected NIH 3T3 cells
T4 construct: whole, on cells

[5] = target: T4, HER3 receptor on cells (HER3- and …); test: flow cytometry on HER2/HER3-transfected NIH 3T3 cells
[6] = target: T4, HER3 receptor on cells (HER3- and …); test: FACS competition on SKBR3 cells: heregulin against HER3-specific positive control antibody B
Description: (§1) After one washing with PBS-1% BSA, anti-HER3 mAbs, at concentration giving 50% maximal binding, were added to each well for 1 h on ice.

[7] = target: T4, HER3 receptor on cells (HER3- and …); test: flow cytometry competition on SKBR3 cells; HRG varied; competitor: antibody 12H8-B11 at the concentration giving 50% maximal binding; antibody 12H8-B11 as the displaced probe, SKBR3 cells
Description: as §1

Row | Binder | EC50 [1] [µg/mL] | geometric mean (flow cytometry) [2] | geometric mean (flow cytometry) [3] | geometric mean (flow cytometry) [4] | geometric mean (flow cytometry) [5] | IC50 (read off the curve) [6] [nM] | IC50 [7] [nM]
1 | anti-HER3 antibody U1-59 (Amgen/U3 Pharma-Daiichi Sankyo) (antibody, V domains shown) VH: QVQLQQWGAGLLKPSETLSLTCAVYGGSFSGYYWSWIRQPPGKGLEWIGEINHSGSTNYNPSLKSRVTISVETSKNQFSLKLSSVTAADTAVYYCARDKWTWYFDLWGRGTLVTVSS VL: not shown | ~0.2 | 0.2 | 0.4 | 9.3 | 15.5 | – | –
2 | murine anti-HER3 monoclonal antibody 9F7-F11 (antibody, V domains shown) VH: EVKLVESGGGLVQPGGSLKLSCAASGFTFSSYTMSWVRQTPEKRLEWVAYISDGGGVTYYPDTIKGRFTISRDNAKNTLYLQMSSLKSEDTAMYYCARDRYGLFAYWGQGTLVTVSA VL: DIVMTQSQKFMSTSVGDRVSITCKASQNVGIAVAWYQQKPGQSPKLLIYSASNRYTGVPDRFTGSGSGTDFTLTISNMQSEDLADYFCQQYSNYPYTFGGGTKLEIK | – | 0.4 | 0.4 | 1.8 | 12.4 | – | –
3 | anti-HER3 antibody Ab6 (Merrimack Pharmaceuticals) (antibody, V domains shown) VH: EVQLLESGGGLVQPGGSLRLSCAASGFTFSHYVMAWVRQAPGKGLEWVSSISSSGGWTLYADSVKGRFTISRDNSKNTLYLQMNSLRAEDTAVYYCTRGLKMATIFDYWGQGTLVTVSS VL: QSALTQPASVSGSPGQSITISCTGTSSDVGSYNVVSWYQQHPGKAPKLIIYEVSQRPSGVSNRFSGSKSGNTASLTISGLQTEDEADYYCCSYAGSSIFVIFGGGTKVTVL | – | 0.2 | 0.3 | 7.8 | 14.1 | – | –
4 | heregulin (HRG) (ligand, UniProt Q02297-6 177-237, looked up, also called HRG ligand) SHLVKCAEKEKTFCVNGGECFMVKDLSNPSRYLCKCPNEFTGDRCQNYVMASFYKHLGIEF | – | – | – | – | – | ~2 | ~2.5
